Settings: Bos taurus; pH 7; Thermal; Absorbance; Sodium phosphate 100 mM; whole UniProt chain shown

B1: Cytochrome b5 wild type, P00171 (protein)
chain: MAEESSKAVKYYTLEEIQKHNNSKSTWLILHYKVYDLTKFLEEHPGGEEVLREQAGGDATENFEDVGHSTDARELSKTFIIGELHPDDRSKITKPSESIITTIDSNPSWWTNWLIPAISALFVALIYHLYTSEN
In the case of B1, the Tm is reported as 67.2 °C and the “unfolding enthalpy (van 't Hoff)” value is reported as 398 kJ/mol.

Source: FireProtDB (doi:10.1021/bi990893b)
